Data from US20250154265A1.

Assays:
Assay in all cases: cell-based or functional assay
[1] = molecular target: human cMET on cells (Hs746T, H596, EBC-1) (human) (UniProt P08581)
[2] = molecular target: EGFR on H2073 cells (human) (UniProt P00533)
[3] = molecular target: EGFR L858R/T790M on H1975 cells (human) (UniProt P00533)
[4] = molecular target: WT EGFR on HEKn cells (human) (UniProt P00533)

Sequence of human cMET on cells (Hs746T, H596, EBC-1) (human) (P08581 25-1390 limits assumed): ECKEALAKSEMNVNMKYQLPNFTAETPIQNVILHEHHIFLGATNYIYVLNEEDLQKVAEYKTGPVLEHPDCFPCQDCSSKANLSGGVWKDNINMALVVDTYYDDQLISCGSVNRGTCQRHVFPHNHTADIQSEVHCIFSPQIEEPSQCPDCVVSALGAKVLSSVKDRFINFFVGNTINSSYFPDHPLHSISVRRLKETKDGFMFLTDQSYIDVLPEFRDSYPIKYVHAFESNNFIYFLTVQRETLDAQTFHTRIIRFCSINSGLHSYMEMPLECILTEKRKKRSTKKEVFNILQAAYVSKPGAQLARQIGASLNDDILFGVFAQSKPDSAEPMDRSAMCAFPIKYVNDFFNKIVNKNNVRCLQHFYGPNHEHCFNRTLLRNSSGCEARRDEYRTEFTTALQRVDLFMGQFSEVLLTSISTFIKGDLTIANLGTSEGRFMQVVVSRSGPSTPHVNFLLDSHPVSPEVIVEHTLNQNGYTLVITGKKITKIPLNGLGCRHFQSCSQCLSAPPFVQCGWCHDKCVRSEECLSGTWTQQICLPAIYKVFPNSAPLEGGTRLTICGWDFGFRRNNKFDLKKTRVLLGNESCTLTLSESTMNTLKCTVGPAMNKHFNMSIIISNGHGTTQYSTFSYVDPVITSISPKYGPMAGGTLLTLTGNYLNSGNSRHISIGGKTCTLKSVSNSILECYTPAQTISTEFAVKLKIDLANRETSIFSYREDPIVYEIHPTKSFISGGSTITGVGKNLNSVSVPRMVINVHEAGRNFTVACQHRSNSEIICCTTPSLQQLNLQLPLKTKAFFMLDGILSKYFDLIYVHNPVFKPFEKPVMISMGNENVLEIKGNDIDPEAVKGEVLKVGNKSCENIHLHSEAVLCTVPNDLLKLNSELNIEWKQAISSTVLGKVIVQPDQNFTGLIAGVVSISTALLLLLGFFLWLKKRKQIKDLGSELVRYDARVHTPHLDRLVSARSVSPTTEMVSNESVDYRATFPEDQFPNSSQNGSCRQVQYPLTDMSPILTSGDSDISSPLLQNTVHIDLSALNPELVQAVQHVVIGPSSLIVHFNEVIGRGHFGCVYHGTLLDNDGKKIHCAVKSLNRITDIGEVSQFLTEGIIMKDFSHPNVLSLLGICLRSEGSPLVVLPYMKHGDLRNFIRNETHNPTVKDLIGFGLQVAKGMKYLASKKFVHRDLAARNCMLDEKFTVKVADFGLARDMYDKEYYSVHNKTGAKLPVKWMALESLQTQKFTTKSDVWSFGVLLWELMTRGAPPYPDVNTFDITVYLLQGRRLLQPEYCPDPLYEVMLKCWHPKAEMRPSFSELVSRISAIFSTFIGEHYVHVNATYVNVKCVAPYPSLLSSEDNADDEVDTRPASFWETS

| Imax (%), anti-proliferation on EBC-1 [1] [%] | Imax (%), anti-proliferation on Hs746t [1] [%] | IC50, anti-proliferation on H2073 [2] [nM] | Imax (%), anti-proliferation on H2073 [2] [%] | IC50, anti-proliferation on H1975 [3] [nM] | Imax (%), anti-proliferation on H1975 [3] [%] | IC50, anti-proliferation on HEKn cells [4] [nM] | Imax(%), anti-proliferation on HEKn cells [4] [%] | Substance |
| --- | --- | --- | --- | --- | --- | --- | --- | --- |
| 0 | 0 | 3.46 | 83 | 0.23 | 58.4 | 5.7 | 33.5 | JNJ-372 (bispecific antibody) |
| – | – | – | – | – | – | 0.24 | 46.2 | LY3164530 (bispecific antibody) |
